Results from patent US20090156476A1 (NASCACELL TECHNOLOGIES, published 2009).
Ends that are not written are not given here.

B1: dimeric SE-ET-TP-030 (DSS-crosslinked dimer) (designed binder)
chain: GCIEGPTLRQWLAACKQDSDCLAGCVCGPNGFCGS
modifications: cysteine pairing not given here; also: DSS-crosslinked dimer, crosslink site not given here
B2: dimeric SE-ET-TP-020 (DSS-crosslinked dimer) (designed binder)
chain: GCIEGPTLRQWLAARACKQDSDCLAGCVCGPNGFCGS
modifications: cysteine pairing not given here; also: DSS-crosslinked dimer, crosslink site not given here
B3: dimeric SE-AG-TP-040 (DSS-crosslinked dimer) (designed binder)
chain: GCVRLHESCLGQQVPCCDPAATCGGTALAIEGPTLRQWLAARACKGS
modifications: cysteine pairing not given here; also: dimer crosslinked by DSS, site of crosslink not given here
B4: dimeric SE-AG-TP-050 (DSS-crosslinked dimer) (designed binder)
chain: GCVRLHESCLGQQVPCCDPAATCGGTCLAIEGPTLRQWLCARACKGS
modifications: cysteine pairing not given here; also: dimer crosslinked by DSS, site of crosslink not given here

Biological target: T1, TPOR/4Rα hybrid receptor (fusion of the hTPOR extracellular domain and the intracellular 4Rα domain from … (human, UniProt P40238 26-491; P24394 257-825, limits assumed)
T1 sequence (looked up): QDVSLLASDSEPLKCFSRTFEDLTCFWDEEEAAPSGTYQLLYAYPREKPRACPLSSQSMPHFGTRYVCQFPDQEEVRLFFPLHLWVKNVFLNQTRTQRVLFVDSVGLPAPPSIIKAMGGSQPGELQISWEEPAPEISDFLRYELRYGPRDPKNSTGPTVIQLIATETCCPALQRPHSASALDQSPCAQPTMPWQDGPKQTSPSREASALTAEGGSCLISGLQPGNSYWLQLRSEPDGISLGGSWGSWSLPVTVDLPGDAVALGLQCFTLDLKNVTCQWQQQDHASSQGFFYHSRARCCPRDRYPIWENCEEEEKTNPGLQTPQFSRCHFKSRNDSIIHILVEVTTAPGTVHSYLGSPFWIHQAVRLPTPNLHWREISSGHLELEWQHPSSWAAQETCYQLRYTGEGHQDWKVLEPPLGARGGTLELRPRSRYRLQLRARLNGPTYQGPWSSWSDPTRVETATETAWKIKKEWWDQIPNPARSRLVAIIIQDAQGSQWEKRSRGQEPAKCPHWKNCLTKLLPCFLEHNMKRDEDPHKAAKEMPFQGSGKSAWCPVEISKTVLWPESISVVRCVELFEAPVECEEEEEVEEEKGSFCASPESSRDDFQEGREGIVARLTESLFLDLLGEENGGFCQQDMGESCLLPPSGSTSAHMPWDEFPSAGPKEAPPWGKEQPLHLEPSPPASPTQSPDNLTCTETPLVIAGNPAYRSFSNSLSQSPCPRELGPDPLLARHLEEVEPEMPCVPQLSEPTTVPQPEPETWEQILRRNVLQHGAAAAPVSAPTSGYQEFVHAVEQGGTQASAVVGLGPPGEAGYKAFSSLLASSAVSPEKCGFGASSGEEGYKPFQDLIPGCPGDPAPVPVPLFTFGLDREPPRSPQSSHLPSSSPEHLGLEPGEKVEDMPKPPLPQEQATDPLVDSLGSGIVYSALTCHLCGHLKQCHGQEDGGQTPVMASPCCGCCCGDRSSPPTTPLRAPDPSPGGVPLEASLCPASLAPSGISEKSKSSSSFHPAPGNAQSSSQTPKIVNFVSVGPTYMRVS
Experiment: cell-based or functional assay

Binder | Agonist EC50[nM] (Ba/F3 luciferase reporter assay)
B1 | 2.5
B2 | 1.4
B3 | ~2
B4 | 2.5
